Laboratory results reported in the RNAGym collection of RNA variant scans (doi:10.7554/elife.80360).

B1: HDV Ribozyme (parent)
chain: GGCCGGCAUGGUCCCAGCCUCCUCGCUGGCGCCGGCUGGGCAACAUUCCGAGGGGACCGUCCCCUCGGUAAUGGCGAAUGGGACCCA

Variants of: B1
Experiment: self-cleavage, relative activity (ratio to wild type); higher = more cleavage; co-transcriptional

Variant | self-cleavage
GGCCGGCAUGGUCCCAGCCUCCUCGCUGGCGCCGGCUGGGCAACAUUCCUAGGGGACCGUCCCCUCGGUAAUGGCGAAUGGGACCGA | 0.811
GGCCGGCAUGGUCCCAGCCUCCUCGCUGGCGCCGGCUGGGCAACAUUCCUAGGGGACCGUCCCCUCGGUUAUGGCGAAUGGGACCCA | 0.946
GGCCGGCAUGGUCCCAGCCUCCUCGCUGGCGCCGGCUGGGCAACAUUCCGCGGGGACCGUCCCCUCGGUAAUGGCGAAUGGGACCCG | 0.862
GGCCGGCAUGGUCCCAGCCUCCUCGCUGGCGCCGGCUGGGCAACAUUCCGCGGGGACCGUCCCCUCGGUACUGGCGAAUGGGACCCA | 0.692
GGCCGGCAUGGUCCCAGCCUCCUCGCUGGCGCCGGCUGGGCAACAUUCCUAGUGGACCGUCCCCUCGGUAAUGGCGAAUGGGACCCA | 0.735
GGCCGGCAUGGUCCCAGCCUCCUCGCUGGCGCCGGCUGGGCAACAUUCCGGGGGGACCGUCCCCUCGGUAAUGGCGAAUGGGACGCA | 0.984
GGCCGGCAUGGUCCCAGCCUCCUCGCUGGCGCCGGCUGGGCAACAUUCCGGGGGGACCGUCCCCUCGGUAAUGGCGAAUGGGACUCA | 0.743
GGCCGGCAUGGUCCCAGCCUCCUCGCUGGCGCCGGCUGGGCAACAUUCCGCGGGGACCGUCACCUCGGUAAUGGCGAAUGGGACCCA | 0.623
GGCCGGCAUGGUCCCAGCCUCCUCGCUGGCGCCGGCUGGGCAACAUUCCGCGGGGUCCGUCCCCUCGGUAAUGGCGAAUGGGACCCA | 1.05
GGCCGGCAUGGUCCCAGCCUCCUCGCUGGCGCCGGCUGGGCAACAUUCCGCGGGGACCGUCCCCUCGGUAAUGGUGAAUGGGACCCA | 0.141
GGCCGGCAUGGUCCCAGCCUCCUCGCUGGCGCCGGCUGGGCAACAUUCCGGGGGGACCGUCCCCUCGGUAAUGGCGAAUGGGACCUA | 1.13
GGCCGGCAUGGUCCCAGCCUCCUCGCUGGCGCCGGCUGGGCAACAUUCCUAGGGGACCGUCCCCUCGGUAAUGGCGAAUGGGAACCA | 0.974
GGCCGGCAUGGUCCCAGCCUCCUCGCUGGCGCCGGCUGGGCAACAUUCCUAGGGGACCGUCCCCUCGGUAAUGGCGAAUGGGAGCCA | 0.724
GGCCGGCAUGGUCCCAGCCUCCUCGCUGGCGCCGGCUGGGCAACAUUCCUUGGGGACCGUCCCCUCGGUAAUGGCGAAUGGGACCCA | 1.05
GGCCGGCAUGGUCCCAGCCUCCUCGCUGGCGCCGGCUGGGCAACAUUCCGGUGGGACCGUCCCCUCGGUAAUGGCGAAUGGGACCCA | 1.02
GGCCGGCAUGGUCCCAGCCUCCUCGCUGGCGCCGGCUGGGCAACAUUCCUAGGGGACCGUCCCCUCGGUAAUCGCGAAUGGGACCCA | 0.268

Variant | self-cleavage
GGCCGGCAUGGUCCCAGCCUCCUCGCUGGCGCCGGCUGGGCAACAUUCCGCGGGGACCGUCCCCUGGGUAAUGGCGAAUGGGACCCA | 0.864
GGCCGGCAUGGUCCCAGCCUCCUCGCUGGCGCCGGCUGGGCAACAUUCCGCGGGGACCGUCCCCUAGGUAAUGGCGAAUGGGACCCA | 1.09
GGCCGGCAUGGUCCCAGCCUCCUCGCUGGCGCCGGCUGGGCAACAUUCCUAGGGGACCGUCCCCUCGGUAAUGGCGAUUGGGACCCA | 0.229
GGCCGGCAUGGUCCCAGCCUCCUCGCUGGCGCCGGCUGGGCAACAUUCCUAGGGGACCUUCCCCUCGGUAAUGGCGAAUGGGACCCA | 0.939
GGCCGGCAUGGUCCCAGCCUCCUCGCUGGCGCCGGCUGGGCAACAUUCCUAGGGGACCGUCCCCUCGGUAAUGGCGAAUGGGACCCA | 0.989
GGCCGGCAUGGUCCCAGCCUCCUCGCUGGCGCCGGCUGGGCAACAUUCCGCGGGGAGCGUCCCCUCGGUAAUGGCGAAUGGGACCCA | 1.14
GGCCGGCAUGGUCCCAGCCUCCUCGCUGGCGCCGGCUGGGCAACAUUCCGCGGGGACCGUUCCCUCGGUAAUGGCGAAUGGGACCCA | 0.914
GGCCGGCAUGGUCCCAGCCUCCUCGCUGGCGCCGGCUGGGCAACAUUCCGCGGGGACCGUCCCCUCGGUAAUGGCGAUUGGGACCCA | 0.133
GGCCGGCAUGGUCCCAGCCUCCUCGCUGGCGCCGGCUGGGCAACAUUCCGCGGGGACCGUCCCCUCGGUAAUGGCGGAUGGGACCCA | 0.643
GGCCGGCAUGGUCCCAGCCUCCUCGCUGGCGCCGGCUGGGCAACAUUCCGCGGGGACCGUCCCCUCGGUAAUGGCGUAUGGGACCCA | 0.429
GGCCGGCAUGGUCCCAGCCUCCUCGCUGGCGCCGGCUGGGCAACAUUCCGGGGGGAGCGUCCCCUCGGUAAUGGCGAAUGGGACCCA | 0.916
GGCCGGCAUGGUCCCAGCCUCCUCGCUGGCGCCGGCUGGGCAACAUUCCGGGGGGACCGUACCCUCGGUAAUGGCGAAUGGGACCCA | 0.954
GGCCGGCAUGGUCCCAGCCUCCUCGCUGGCGCCGGCUGGGCAACAUUCCGGGGGGACCGUGCCCUCGGUAAUGGCGAAUGGGACCCA | 0.964
GGCCGGCAUGGUCCCAGCCUCCUCGCUGGCGCCGGCUGGGCAACAUUCCGCGGGGACCGUCCCCUCGGUAAAGGCGAAUGGGACCCA | 0.609
GGCCGGCAUGGUCCCAGCCUCCUCGCUGGCGCCGGCUGGGCAACAUUCCGCGGGGACCGUCCCCUCGGUAAGGGCGAAUGGGACCCA | 0.529
GGCCGGCAUGGUCCCAGCCUCCUCGCUGGCGCCGGCUGGGCAACAUUCCUAGGGGACCGUCCCCUCGGUAAUGGCGAAUGGGACACA | 0.742
